Results on five molecules are retold here after publication doi:10.1101/2025.09.09.675193 (bioRxiv, 2025).

Square brackets hold non-standard residues; d marks the D form. Ends that are not written are not given here. * marks the point of attachment. 5FAM = O=C1OC2(c3ccc(O)cc3Oc3cc(O)ccc32)c2ccc(C(=O)*)cc21; pT = C[C@@H](OP(=O)(O)O)[C@H](N)C(=O)O; pS = N[C@@H](COP(=O)(O)O)C(=O)O

Series [1] concerns the target T1, DDIAS OB fold WT (Homo sapiens, UniProt Q8IXT1 1-168).
T1 sequence: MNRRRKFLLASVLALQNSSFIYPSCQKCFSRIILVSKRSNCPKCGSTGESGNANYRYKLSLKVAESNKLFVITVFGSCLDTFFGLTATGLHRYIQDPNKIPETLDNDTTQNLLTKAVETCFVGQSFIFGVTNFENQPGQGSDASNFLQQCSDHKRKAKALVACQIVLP
In words: EMSA. (In EMSA bound probe runs differently from free probe, usually more slowly.)

The target in series [2] is T2, DDIAS OB fold C25A/C28A (Homo sapiens, UniProt Q8IXT1 1-168, C25A;C28A).
T2 sequence: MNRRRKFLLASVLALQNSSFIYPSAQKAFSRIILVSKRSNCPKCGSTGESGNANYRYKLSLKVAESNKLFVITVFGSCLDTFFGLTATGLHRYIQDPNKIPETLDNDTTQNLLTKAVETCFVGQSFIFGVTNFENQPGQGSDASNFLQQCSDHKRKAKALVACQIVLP
In words: EMSA.

Series [3] has as its target recombinant TOPBP1 BRCT domains 4+5 (residues 548-741) (human, UniProt Q92547 548-741). Briefly: fluorescence polarisation.
For series [4], the target named is recombinant TOPBP1 BRCT domains 7+8 (residues 1263-1495) (human, UniProt Q92547 1263-1495). Briefly: fluorescence polarisation. (Fluorescence polarisation rises when a labelled molecule tumbles more slowly, as on binding a larger partner.)
Sequence of recombinant TOPBP1 BRCT domains 7+8 (residues 1263-1495) (Q92547 1263-1495): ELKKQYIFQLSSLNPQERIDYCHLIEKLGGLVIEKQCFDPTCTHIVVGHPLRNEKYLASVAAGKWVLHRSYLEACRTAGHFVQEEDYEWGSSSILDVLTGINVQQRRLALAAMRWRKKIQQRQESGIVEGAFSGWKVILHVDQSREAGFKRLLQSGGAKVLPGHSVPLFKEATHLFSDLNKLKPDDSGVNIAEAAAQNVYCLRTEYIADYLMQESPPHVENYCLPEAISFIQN

Sequence of recombinant TOPBP1 BRCT domains 4+5 (residues 548-741) (Q92547 548-741): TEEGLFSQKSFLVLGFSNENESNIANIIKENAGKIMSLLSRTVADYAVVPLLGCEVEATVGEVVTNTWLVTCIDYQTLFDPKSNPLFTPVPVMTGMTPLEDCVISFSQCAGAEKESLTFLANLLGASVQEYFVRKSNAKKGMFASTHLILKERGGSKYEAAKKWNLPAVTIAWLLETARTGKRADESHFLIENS

Take GATGAGATTGAGGCTGGCCTGCAGGCATGCAAGCACCTGG (ssDNA) [Cy5 40-nt ssDNA]: the binding result is “binds” in series [1] and “no binding” in series [2].

B1: Cy5 40-bp dsDNA (dsDNA)
DNA 1: GATGAGATTGAGGCTGGCCTGCAGGCATGCAAGCACCTGG
DNA 2: CCAGGTGCTTGCATGCCTGCAGGCCAGCCTCAATCTCATC
As to B1, the binding result in series [1] is given as “no binding”. For 5FAM-GSGETDSDEWVPP[pT]TQK (also: phosphothreonine at Thr868 (position not mappable)) [DDIAS-pT868 peptide, 5-carboxy-fluorescein labelled], the binding result in series [3] was “binds”. Turning to 5FAM-GSGETRSAW[pS]PELFS (also: phosphoserine at Ser993 (position not mappable)) [DDIAS-pS993 peptide, 5-carboxy-fluorescein labelled], the binding result in series [4] was “binds”. As to 5FAM-GSGEGSYDA[pS]ADLFDD (also: phosphoserine at Ser676 (S6 or S10)) [DDIAS-pS676 peptide, 5-carboxy-fluorescein labelled], the binding result in series [4] was “binds”.
